Laboratory results reported in publication PMC3690481 (2013).
Where two headings read alike, the source gives them in different places. One block for each binder: values may come before it.

Key:
[1] = molecular target: T1, FlAsH-tagged Met1-diUb (UniProt P0CG48 1-76; P0CG48 1-71, Lumio Green (FlAsH) on the C-terminal WCCPGCC motif); experiment: FP
[2] = molecular target: T1, FlAsH-tagged Met1-diUb; experiment: FP; remark: listed apart in the source

Kd [1]: 3.7 µM
B1: NEMO UBAN domain (domain or fragment)
chain: GMQLEDLKQQLQQAEEALVAKQEVIDKLKEEAEQHKIVMETVPVLKAQADIYKADFQAERQAREKLAEKKELLQEQLEQLQREYSKLKAS

Kd [2]: 36.1 µM
B2: OTULIN C129A TQK100-102AAA (enzyme)
chain: MSRGTMPQPEAWPGASCAETPAREAAATARDGGKAAASGQPRPEMQCPAEHEEDMYRAADEIEKEKELLIHERGASEPRLSVAPEMDIMDYCKKEWRGNAAAATCMKMGYEEVSQKFTSIRRVRGDNYAALRATLFQAMSQAVGLPPWLQDPELMLLPEKLISKYNWIKQWKLGLKFDGKNEDLVDKIKESLTLLRKKWAGLAEMRTAEARQIACDELFTNEAEEYSLYEAVKFLMLNRAIELYNDKEKGKEVPFFSVLLFARDTSNDPGQLLRNHLNQVGHTGGLEQVEMFLLAYAVRHTIQVYRLSKYNTEEFITVYPTDPPKDWPVVTLIAEDDRHYNIPVRVCEETSL
